Molecular target: Bcl-xL, Q07817
Assay: peptide SPOT array, c-Myc-tagged receptor at 1 uM or 100 nM, anti-c-Myc-Cy3

Sequence of Bcl-xL, Q07817 (Q07817 1-209): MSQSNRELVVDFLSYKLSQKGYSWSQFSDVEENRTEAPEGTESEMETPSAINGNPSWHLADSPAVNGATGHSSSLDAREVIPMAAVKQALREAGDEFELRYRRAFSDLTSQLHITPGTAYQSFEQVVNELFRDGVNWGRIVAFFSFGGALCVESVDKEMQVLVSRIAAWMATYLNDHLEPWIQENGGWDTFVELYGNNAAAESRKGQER

| Binder | SPOT signal as a fraction of Bim BH3's signal on the same receptor and array |
| --- | --- |
| REEIRKVVQSLEQTAREILTLLQGVH [TSN] | 0.04 |
| FQEAKQFGQKLQDLAEHSDPEVRDKV [ARMCX5] | 0.02 |
| LRQMQECAKRIAKVSAEAKLEIDEET [SKIV2L2] | 0.03 |
| QEELQDWVKKIREVAQTADARLTEGK [PLCG1] | 0.03 |
| GFQVLNAIENLDDNAQRYDLDGLEKA [C9orf167] | 0.03 |
| EVNMSLSGRYLEELSQRYRKQMEEMQ [C1orf9] | 0.03 |
| FEKLRMIAKEDRHVGRMASVNMDPAL | 0.13 |
| TCELGEFVKNIDQVSSEVLEGWPDSY [TLR1] | 0.02 |
| SQDFSELSTQLTGVARDLQEEMLPGS [MON1A] | 0.03 |
| DTIFHRAAVRDRDLGGAILRHARRQA [BRPF3] | 1.5 |
| KAIFDRLCKQLEKIGQQVDREPGDVA [ORC6L] | 0.04 |
| GAQHSTMTSTDRRLGEDIFKGVVTKG [CCDC138] | 0.03 |

Further lines, results first:

| SPOT signal as a fraction of Bim BH3's signal on the same receptor and array | Binder |
| --- | --- |
| 0.52 | RTNNYQLSDELRKNLVELTSLRQKVA [GRIPAP1] |
| 0.84 | VIKQRRLPDQLSKLLDRIQLSGRYYL |
| 1.22 | AHKARALARLDRQTALAAFSDFKRLQ [FAM43B] |
| 0.02 | KFELEQNIKELNTLADQVDTTHELLT [APOL5] |
| 0.11 | DNHKKKTVKMDEYLGKDVLHGVFNYL [CASP5] |
| 0.76 | VYILRKAARRLAQVSRAAGVRVGLLS [CACNA1G] |
| 0.06 | RRRLLLASKELHQVAHDLDDELAWVQ [SPTBN4] |
| 0.02 | HSEITPYATDLAQTSEKLIPHLHKLP [CCDC129] |
| 0.56 | MGVLAAAARCDVRGADRMSKWTSKRG [MRPL41] |
| 0.45 | PFDCRDYAVVDRKYADKIYSISMKHP [FOLH1] |

Source: article PMC4072508, “Genome-Wide Prediction and Validation of Peptides That Bind Human Prosurvival Bcl-2 Proteins” (PLoS Computational Biology, 2014)
